{"source": "paper PMC10066210", "about": "“The structural basis of the pH-homeostasis mediated by the Cl^−/HCO3^− exchanger, AE2” (Nature Communications, 2023)", "proteins": {"B1": {"name": "human anion exchanger 2 (AE2), residues 177-1241 (natural protein, UniProt P04920 177-1241, looked up)", "chain": "LPHQEATPRASKGAQAGTQVEEAEAEAVAVASGTAGGDDGGASGRPLPKAQPGHRSYNLQERRRIGSMTGAEQALLPRVPTDEIEAQTLATADLDLMKSHRFEDVPGVRRHLVRKNAKGSTQSGREGREPGPTPRARPRAPHKPHEVFVELNELLLDKNQEPQWRETARWIKFEEDVEEETERWGKPHVASLSFRSLLELRRTLAHGAVLLDLDQQTLPGVAHQVVEQMVISDQIKAEDRANVLRALLLKHSHPSDEKDFSFPRNISAGSLGSLLGHHHGQGAESDPHVTEPLMGGVPETRLEVERERELPPPAPPAGITRSKSKHELKLLEKIPENAEATVVLVGCVEFLSRPTMAFVRLREAVELDAVLEVPVPVRFLFLLLGPSSANMDYHEIGRSISTLMSDKQFHEAAYLADEREDLLTAINAFLDCSVVLPPSEVQGEELLRSVAHFQRQMLKKREEQGRLLPTGAGLEPKSAQDKALLQMVEAAGAAEDDPLRRTGRPFGGLIRDVRRRYPHYLSDFRDALDPQCLAAVIFIYFAALSPAITFGGLLGEKTQDLIGVSELIMSTALQGVVFCLLGAQPLLVIGFSGPLLVFEEAFFSFCSSNHLEYLVGRVWIGFWLVFLALLMVALEGSFLVRFVSRFTQEIFAFLISLIFIYETFYKLVKIFQEHPLHGCSASNSSEVDGGENMTWAGARPTLGPGNRSLAGQSGQGKPRGQPNTALLSLVLMAGTFFIAFFLRKFKNSRFFPGRIRRVIGDFGVPIAILIMVLVDYSIEDTYTQKLSVPSGFSVTAPEKRGWVINPLGEKSPFPVWMMVASLLPAILVFILIFMETQITTLIISKKERMLQKGSGFHLDLLLIVAMGGICALFGLPWLAAATVRSVTHANALTVMSKAVAPGDKPKIQEVKEQRVTGLLVALLVGLSIVIGDLLRQIPLAVLFGIFLYMGVTSLNGIQFYERLHLLLMPPKHHPDVTYVKKVRTLRMHLFTALQLLCLALLWAVMSTAASLAFPFILILTVPLRMVVLTRIFTDREMKCLDANEAEPVFDEREGVDEYNEMPMPV", "notes": "Anion exchanger 2 (AE2, SLC4A2), human; A TEV protease site lies between the N-terminal Flag-8xHis tags and AE2; Solubilised in LMNG/CHS/GDN and kept in GDN; Residues 1-319, 433-498, 643-672 and 856-893 are not modelled in the structures; also called hAE2; AE2^177-1241; source: Expi293 cells, transiently transfected, purified (anti-Flag beads, SEC in GDN)"}}, "target": "the molecule itself", "assay": "cryo-EM structure; hAE2 in GDN, about 10 mg/mL; samples in KNO3 pH 7.25 to 6.55, Tris-HCl pH 8.32, NaCl, 50 mM NaHCO3, or DIDS with NaHCO3; C2 symmetry (one class C1)"}
{"protein": "B1", "values": [{"measurement": "stoichiometry N", "result": 2}]}
